Series [1] addresses T1, Lysozyme (egg white) (UniProt P00698 P00698:19-147). The series can be described thus: fluorescence turn-on; lysozyme spiked into chocolate cake. The note with it: tags: Pierce (Thermo Scientific); label: 5'-fluorescein, 3'-Dabcyl; hairpin. The method, then:
A set of binding assays were performed using lysozyme SPNs (MB4, MB5 and MB6). Experimental procedures: Food samples were homogenized as stated above—generally 2.5 ml buffer was added to 0.5 food sample. The samples were homogenized and centrifuged. 25 ul of the sample was added to a 96 flat bottom well plate. The specific SPN was resuspended to a 100 uM concentration and 25 ul of the SPN was added to the plate—final concentration 50 uM. The samples were immediately read with the GloMax Promega plate reader using the blue laser. (detection was quantified as the intensity of FITC minus the background—buffer alone and non-spiked samples).

In series [2] the target is T1, Lysozyme (egg white). The series can be described thus: fluorescence turn-on; 100 uM SPN detects 5 ng/mL lysozyme; 25 C; not altered by milk or BSA (FIG. 10). The note with it: tags: Pierce (Thermo Scientific); partial duplex with annealed 10-nt quencher linker at 5' end. On the procedure:
(§1) Protein samples are diluted to specified concentrations in PBS. The signaling polynucleotide solutions are prepared at 200 μM in 10 mM TRIS-HCl, pH 7.5, heated to 99° C. for 3 minutes and then cooled to room temperature for 20 minutes. Volumes of 60 μL of protein solutions are added to the wells of a 96-well plate. Signaling polynucleotides are added to the wells as soon as possible after the addition of the protein samples. Fluorescence readings are taken immediately with all readings obtained at 25° C. with an excitation wavelength of 495 nm and emission monitored at the fluorescence peak of 519 nm. The signaling polynucleotides were synthesized by TriLink Biotechnologies (San Diego, Calif.), pure lysozyme was obtained from Pierce (Thermoscientific) and BSA was obtained from Sigma Aldrich.
(§2) The data plotted in FIG. 9A indicate that SPN-E* at a concentration of 100 μM detects lysozyme at a 5 ng/mL concentration and increases the detection level to 3 pg/sample. The data plotted in FIG. 9B indicate that SPN-E can be used to detect lysozyme in unprocessed egg white which was diluted 1:20 (sample size was 30 μL). SPN-E gave a minimal signal with BSA as the negative control protein.

The next series deals with Ovomucoid (UniProt P01005 P01005:25-210). The series can be described thus: ovomucoid spiked in mug cake. The note with it: label: 5'-fluorescein, 3'-Dabcyl; hairpin.
For a further series, the target named is Bovine serum albumin (Bos taurus, UniProt P02769 P02769:25-607). The series can be described thus: fluorescence turn-on; minimal signal with BSA negative control. The following applies: tags: Sigma Aldrich; label: 5'-fluorescein, 3'-DABCYL; hairpin. On the procedure: as §1, §2
The target of series [3] is T1, Lysozyme (egg white). The series is described as follows: fluorescence turn-on; detects lysozyme 0.6-1200 ng/mL; 12 uM SPN; PBS/Tris pH 7.5, 25 C. The following applies: tags: Pierce (Thermo Scientific); label: 5'-fluorescein, 3'-Dabcyl; hairpin. On the procedure:
as §1
An assay was performed to obtain a dose curve (12 μM of detection of signaling polynucleotide SPN-E per sample). The results are shown in FIG. 8 and indicate that SPN-E detects lysozyme concentrations ranging from 0.6 ng/mL to 1200 ng/mL, translating to less than 50 pg of lysozyme per sample.

T1 sequence (P00698 19-147, one chain of several): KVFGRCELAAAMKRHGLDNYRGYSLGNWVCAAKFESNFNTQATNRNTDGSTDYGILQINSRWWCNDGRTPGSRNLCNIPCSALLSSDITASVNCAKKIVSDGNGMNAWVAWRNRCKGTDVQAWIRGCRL
Sequence of Ovomucoid (P01005 25-210, one chain of several): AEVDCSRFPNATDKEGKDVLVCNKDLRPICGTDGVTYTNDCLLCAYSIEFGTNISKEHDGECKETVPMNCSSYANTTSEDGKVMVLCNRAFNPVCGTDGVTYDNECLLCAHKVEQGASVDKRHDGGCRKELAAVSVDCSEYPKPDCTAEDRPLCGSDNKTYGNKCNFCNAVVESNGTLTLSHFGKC
Sequence of Bovine serum albumin (P02769 25-607, one chain of several): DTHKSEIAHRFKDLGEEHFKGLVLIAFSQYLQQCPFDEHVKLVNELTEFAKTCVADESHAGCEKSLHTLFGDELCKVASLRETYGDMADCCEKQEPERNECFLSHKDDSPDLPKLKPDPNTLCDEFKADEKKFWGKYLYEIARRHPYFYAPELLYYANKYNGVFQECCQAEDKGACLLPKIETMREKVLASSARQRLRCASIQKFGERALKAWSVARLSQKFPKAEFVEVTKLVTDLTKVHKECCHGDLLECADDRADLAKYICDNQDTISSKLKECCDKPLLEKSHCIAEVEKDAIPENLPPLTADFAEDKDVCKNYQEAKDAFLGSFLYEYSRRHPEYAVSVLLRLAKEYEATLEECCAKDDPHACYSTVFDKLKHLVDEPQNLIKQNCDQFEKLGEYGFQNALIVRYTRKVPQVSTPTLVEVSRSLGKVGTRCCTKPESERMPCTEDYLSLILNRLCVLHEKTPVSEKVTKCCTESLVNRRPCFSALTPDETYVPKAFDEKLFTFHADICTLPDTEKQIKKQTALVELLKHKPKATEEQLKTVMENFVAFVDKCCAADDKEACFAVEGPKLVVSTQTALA

B1: MB6 (ssDNA)
DNA: TGCAGCTAAGCAGGCGGCTCACAAAACCATTCGCATGCGGCGCTGCA
For the molecule B1, the binding result in the series with Lysozyme (egg white) [1] is reported as “binds”.

B2: SPN-E* (structured_DNA)
DNA 1: TGCAGCTAAGCAGGCGGCTCACAAAACCATTCGCATGCGGC
DNA 2: CTTAGCTGCA
For the molecule B2, the binding result with Lysozyme (egg white) [2] is recorded as “binds”.

B3: MB7 (ssDNA)
DNA: TCGCACATTCCGCTTCTACCGGGGGGGTCGAGCTGAGTGGATGCGAATCTGTGGGTGGGCCGTAAGTCCGTGTGTGCGAATGTGCGA
Take B3: in the series with Ovomucoid, the binding result was “no binding”.

B4: MB9 (ssDNA)
DNA: TCGCACATTCCGCTTCTACCGGGGGGGTCGAGCTGAGTGGATGCGAATCTGTGGGTGGGCCGTAAGTCCGTGTGTGCGAAAATGTGCGA
Consider B4, for which, in the series with Ovomucoid, the binding result is recorded as “no binding”.

B5: SPN-E (ssDNA)
DNA: TGCAGCTAAGCAGGCGGCTCACAAAACCATTCGCATGCGGCGCTGC
In the case of B5, the values for the binding result in the series with Bovine serum albumin and with Lysozyme (egg white) [3] were “no binding” and “binds”, respectively.

B6: MB4 (ssDNA)
DNA: TGCAGCTAAGCAGGCGGCTCACAAAACCATTCGCATGCGGCTGCA
In the case of B6, the binding result with Lysozyme (egg white) [1] is “binds”.

For the origin of these results see US20160251703, “ALLERGEN DETECTION” (DOTS DEVICES, INC., published 2016).
